# In paper PMC11157265:
# B1: PduL (Citrobacter freundii), His-tag cleaved (enzyme)
# chain: MDKQQLETTVTKVLDEMRERPIPLGISNRHIHLCAEDYDRLFPNHPISEKKELLQPGQYAADQTVTLVGPKGQLKNVRLLGPLRSTSQVEISRTDARTLGIAAPLRMSGSIEGTPGVRLISPFAELDLASGVIVAQRHIHMSPLDALILRVSHGDKVSVAINGDERRLIFDNVAVRVSPDMRLEMHIDTDEANAAGADNPQAFATLVSPR
# Experiments:
# [1] = biological target: PduA* (Citrobacter freundii PduA with a C-terminal 23 residue extension) (C. freundii); test: native gel or EMSA; PduA and variants alone on native PAGE run at pH 8.5, 4 °C; low mobility = tessellated, high mobility = not tessellated; step: hexamer with hexamer (tessellation)
# PduA* A63R (C. freundii) = test: native gel or EMSA; PduA, A63R and A^GGSST alone on native gel run at pH 9.5; mobility tells tessellated from not tessellated; step: hexamer with hexamer (tessellation)
# [2] = biological target: PduA* (Citrobacter freundii PduA with a C-terminal 23 residue extension) (C. freundii); test: native gel or EMSA; titration of PduL into PduA trimer of hexamers on a native gradient gel (higher resolution)
# [3] = biological target: PduA* (Citrobacter freundii PduA with a C-terminal 23 residue extension) (C. freundii); test: native gel or EMSA; titration of tagless PduL into His-tagged PduA on a 6% acrylamide native gel, with anti-His Western blot to locate PduA
molecule,measurement,setting,value
PduA* (Citrobacter freundii PduA with a C-terminal 23 residue extension) (natural protein),stoichiometry N,[1],3 hexamers
PduA* A63R (natural protein),stoichiometry N,PduA* A63R (C. freundii),3 hexamers
B1,stoichiometry N (PduL dimers per PduA trimer of hexamers),[2],3
same,stoichiometry N (PduL dimer per PduA hexamer),[3],1
